Results taken from patent publication US20130189255A1, “FUSIONS AND CONJUGATES OF INSULINOTROPIC AGENTS” (GLAXO GROUP LIMITED, priority 2008, published 2013).

Molecular target: human GLP-1 receptor (human) (UniProt P43220)
Assay: cell-based or functional assay

human GLP-1 receptor (human), sequence (P43220 24-463): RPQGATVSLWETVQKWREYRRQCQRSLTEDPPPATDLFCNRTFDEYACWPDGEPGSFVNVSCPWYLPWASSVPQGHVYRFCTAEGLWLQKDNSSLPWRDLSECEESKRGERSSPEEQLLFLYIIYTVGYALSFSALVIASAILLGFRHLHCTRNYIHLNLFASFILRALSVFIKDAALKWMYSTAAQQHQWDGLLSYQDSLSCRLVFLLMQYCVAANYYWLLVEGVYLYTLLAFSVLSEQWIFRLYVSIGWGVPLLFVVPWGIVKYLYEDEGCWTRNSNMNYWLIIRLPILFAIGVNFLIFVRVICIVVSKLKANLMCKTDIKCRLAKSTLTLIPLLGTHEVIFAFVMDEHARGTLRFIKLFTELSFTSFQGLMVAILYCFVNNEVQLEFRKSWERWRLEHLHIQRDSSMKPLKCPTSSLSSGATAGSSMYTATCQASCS

GLP-1 7-36 (from UniProt P01275 21-180) (peptide)
GLP-1R BA (10 uM albumin) EC50 (pM) n = 2 (CRE-luciferase reporter in CHO 6CRE GLP1R cells): 19 pM | GLP-1R BA EC50 (pM) n = 3 (CRE-luciferase reporter in CHO 6CRE GLP1R cells): 21 pM
